Reference: US20040072256A1

Tests used:
[1] = target: hemagglutinin (HA) of Influenza virus A/PR/8/34 (H1N1) (Influenza virus A/PR/8/34 (H1N1)) (UniProt P03452); test: cell-based or functional assay
[2] = target: hemagglutinin-neuraminidase (HN) glycoprotein of Sendai virus (Sendai virus); test: flow cytometry on SV-infected 721.221 cells, no mAb
[3] = target: hemagglutinin (HA) of Influenza virus A/PR/8/34 (H1N1) (Influenza virus A/PR/8/34 (H1N1)) (UniProt P03452); test: flow cytometry on IV-infected 1106mel cells, no mAb
[4] = target: hemagglutinin-neuraminidase (HN) glycoprotein of Sendai virus (Sendai virus); test: flow cytometry, SV-infected vs uninfected 721.221 cells
[5] = target: hemagglutinin (HA) of Influenza virus A/PR/8/34 (H1N1) (Influenza virus A/PR/8/34 (H1N1)) (UniProt P03452); test: flow cytometry, IV-infected vs uninfected 1106mel cells
[6] = target: hemagglutinin-neuraminidase (HN) glycoprotein of Sendai virus (Sendai virus); test: flow cytometry, 293T cells transfected with Sendai HN cDNA vs mock
[7] = target: hemagglutinin-neuraminidase (HN) glycoprotein of Sendai virus (Sendai virus); test: flow cytometry on SV-infected 721.221 cells pre-incubated with competitor 135.7 (anti-HN)
[8] = target: hemagglutinin-neuraminidase (HN) glycoprotein of Sendai virus (Sendai virus); test: flow cytometry on SV-infected 721.221 cells pre-incubated with competitor TC-9A1 (anti-F)
[9] = target: hemagglutinin-neuraminidase (HN) glycoprotein of Sendai virus (Sendai virus); test: flow cytometry on SV-infected 721.221 cells pre-incubated with competitor TC-1D6 (anti-HN)
[10] = target: hemagglutinin-neuraminidase (HN) glycoprotein of Sendai virus (Sendai virus); test: flow cytometry on SV-infected 721.221 cells pre-incubated with competitor TC-9C1 (anti-HN)
[11] = target: hemagglutinin (HA) of Influenza virus A/PR/8/34 (H1N1) (Influenza virus A/PR/8/34 (H1N1)) (UniProt P03452); test: flow cytometry on IV-infected 1106mel cells pre-incubated with competitor H17-L2 (anti-HA)
[12] = target: hemagglutinin (HA) of Influenza virus A/PR/8/34 (H1N1) (Influenza virus A/PR/8/34 (H1N1)) (UniProt P03452); test: flow cytometry on IV-infected 1106mel cells pre-incubated with competitor H28-E23 (anti-HA)
[13] = target: hemagglutinin (HA) of Influenza virus A/PR/8/34 (H1N1) (Influenza virus A/PR/8/34 (H1N1)) (UniProt P03452); test: flow cytometry on IV-infected 1106mel cells pre-incubated with NA2-1C1 (anti-NA, blocks neuraminidase activity)
[14] = target: hemagglutinin-neuraminidase (HN) glycoprotein of Sendai virus (Sendai virus); test: cell-based or functional assay

Substance | hemagglutination inhibition (IV-mediated agglutination of sheep erythrocytes) [1] [µM] | MFI NKp46-Ig binding [2] [MFI] | MFI NKp46-Ig binding [3] [MFI] | fold increase in staining on SV infection [4] [fold] | fold increase in binding on IV infection [5] [fold] | fold increase in staining on HN transfection [6] [fold] | MFI NKp46-Ig binding [7] [MFI] | MFI NKp46-Ig binding [8] [MFI] | MFI NKp46-Ig binding [9] [MFI] | MFI NKp46-Ig binding [10] [MFI] | MFI NKp46-Ig binding [11] [MFI] | MFI NKp46-Ig binding [12] [MFI] | MFI NKp46-Ig binding [13] [MFI] | lysis of HN-transfected 293T cells by NK line NK-GAL (35S-release) [14] [fold]
NKp46-Ig fusion protein (Fc fusion) | 2 | 74 | 441 | 10 | 4 | 2 | 22 | 63 | 14 | 18 | 145 | 63 | 980 | –
NKp46 receptor on NK cells (from UniProt O76036 22-304) | – | – | – | – | – | – | – | – | – | – | – | – | – | > 4
